Assay results published in patent US20190248902A1 (published 2019).

T1: Dog ASGR-1 (dog)
T1 construct: Expressed on HEK 293 cells or as membrane prep on beads; cDNA GenBank XM_546579
T1 chain: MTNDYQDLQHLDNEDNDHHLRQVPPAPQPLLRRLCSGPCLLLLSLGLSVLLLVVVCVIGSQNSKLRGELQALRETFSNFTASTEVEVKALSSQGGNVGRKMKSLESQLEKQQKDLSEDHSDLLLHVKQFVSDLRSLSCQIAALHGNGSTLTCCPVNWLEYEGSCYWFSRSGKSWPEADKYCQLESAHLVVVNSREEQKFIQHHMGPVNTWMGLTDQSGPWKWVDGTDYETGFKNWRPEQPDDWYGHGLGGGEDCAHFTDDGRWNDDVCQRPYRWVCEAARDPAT

T2: Rat ASGR-1 (rat, UniProt P02706 1-284)
T2 construct: Expressed on HEK 293 cells or as membrane prep on beads; cDNA GenBank NM_012503
T2 sequence: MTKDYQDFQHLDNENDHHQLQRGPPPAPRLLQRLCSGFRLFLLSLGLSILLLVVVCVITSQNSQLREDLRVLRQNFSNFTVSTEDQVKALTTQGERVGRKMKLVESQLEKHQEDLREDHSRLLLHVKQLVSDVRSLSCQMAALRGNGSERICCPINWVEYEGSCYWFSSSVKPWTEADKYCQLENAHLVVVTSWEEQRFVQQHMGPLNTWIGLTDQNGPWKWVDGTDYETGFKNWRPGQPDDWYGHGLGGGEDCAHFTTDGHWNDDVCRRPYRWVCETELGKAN


Legend:
[1] = target: T1, Dog ASGR-1; assay: FACS on transfected HEK 293 cells or membrane preps on beads; Y = signal at least 2x irrelevant IgG
In short: (§1)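 Antibodies at normalized concentrations bound 1 h at 4° C to HEK 293 cells expressing each antigen, then Alexa Fluor 647 anti-Fc plus 7-AAD 15 min at 4° C, flow cytometry; empty-vector cells as negative. Alternatively, species ASGR-1 membrane preps on streptavidin beads, antibody 1 h RT, Alexa Fluor 488 anti-Fc; FACS buffer with 1 mM CaCl2 throughout.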

[2] = target: T2, Rat ASGR-1; assay: FACS on transfected HEK 293 cells or membrane preps on beads; binding = signal at least 2x irrelevant IgG
In short: as §1

[3] = target: T2, Rat ASGR-1; assay: FACS on transfected HEK 293 cells or membrane preps on beads; Y = signal at least 2x irrelevant IgG
In short: as §1

[4] = target: T1, Dog ASGR-1; assay: FACS on transfected HEK 293 cells or membrane preps on beads; binding = signal at least 2x irrelevant IgG
In short: as §1

| Binder | binding result [1] | binding result [2] | binding result [3] | binding result [4] |
| --- | --- | --- | --- | --- |
| 218G4 (antibody, V domains shown, Tested as hybridoma supernatant at normalized concentration) VH: QVQLVESGGGVVQPGRSLRLSCAASGFTFSSYGLHWVRQAPGKGLEWVAVIWYDGSNKYYADSVKGRFTISRDNSKNTLYLQMNSLRVEDTAVYYCANWYYYYYGMDVWGQGTTVTVSS VL: QSVLTQPPSVSAAPGQKVTISCSGSSSNIGNNYVSWYQQLPGTAPKLLLYDSNKRPSGIPARFSGSKSGTSATLGITGLQTGDEADYYCGTWDSSLNTVVFGGGTKLTVL | binds | no binding |  |  |
| 194A4 (antibody, V domains shown, Tested as hybridoma supernatant at normalized concentration) VH: QVQLVQSGTEVKKPGASLKVSCKASGYTFTVYYLNWVRQAPGQGLEWMGWINPNSGGTNYAQKFQGRVTMTRDTSISTAYMELSRLRSDDTAVYYCARGYDILTGWGQGTLVTVSS VL: EIVLTQSPGTLSLSPGERATLSCRASRGVSNIYLAWYQQKPGQAPRLLIYGASNRATGIPDRFSGSGSGTDFTLTISRLEPEDFAVYYCQHNDYSMFTFGPGTKVDIK | binds |  | binds |  |
| 75G3 (antibody, V domains shown, Tested as hybridoma supernatant at normalized concentration) VH: QVQLQQWGAGLLKPSETLSLTCAVYGGSLSGSYWSWIRQPPGKGLEWIGEINLSGSTNYNPSLKSRVTISVDTSKSQFSLTLRSVTAADTAVYYCARDYGGLDYWGQGTLVTVSS VL: EIVLTQSPGTLSLSPGERATLSCRARQNVDSSYLAWYQQKPGQAPRLLIYGASSRATGIPDRFSGSGSGTDFTLTISRLEPEDFAVFYCQQYERSPWTFGQGTKVEIK | binds | no binding |  |  |
| 176H4 (antibody, V domains shown, Tested as hybridoma supernatant at normalized concentration) VH: QVQLVESGGGVVQPGRSLRLSCAASGFTFSSYGMHWVRQAPGKGLEWVAIIWYDGSYKYYADSVKGRFTISRDNSKNTLYLQMSSLRAEDTAVYYCARDAHDFWSGYFAYWGQGALVTVSS VL: DIVMTQTPLSLSVTPGQPASISCKSSQSLLHGDGKTYLYWYLQKPGQPPQLLIYEVSNRFSGVPDRFSGSGSGTDFTLKISRVEAEDVGIYYCMQSIQIPWTFGQGTRVEIK | binds | no binding |  |  |
| 190F8 (antibody, V domains shown, Tested as hybridoma supernatant at normalized concentration) VH: QVQLVESGGGVVQPGRSLRLSCAASGFTFSTYGMHWVRQAPGKGLEWVAVIWYDGSNKNYADSVKGRFTISRDNSKNTLYLQMNSLRAEDTAVYYCARDQGVGYDGLDVWGQGTTVTVSS VL: DIQMTQSPSSLSASVGDRVTITCRTSQGIGNYLAWFQQKPGKAPKSLLYKASSLQSGVPSKFSGSGSGTDFTLTISSLQPEDFATYYCQQYMTYPLTFGGGTKVEIK | binds | no binding |  |  |
| 197G3 (antibody, V domains shown, Tested as hybridoma supernatant at normalized concentration) VH: QVQLVESGGGVVQPGRSLRLSCVASGFTFSSHGMHWVRQAPGKGLEWVAVIWYDGSNKNYADSVKGRFTISRDNSKNTLYLQMNSLRAEDTAVYYCARDPSVGYDGMDVWGQGTTVTVSS VL: DIQMTQSPSSLSASVGDRVTITCRASQGIGNHLAWFQQKPGKAPKSLIYAASSLQSGVPSKFSGSRSGTDFSLTISSLQPEDFATYYCQQYSNYPVTFGPGTKVDIK | binds | no binding |  |  |
| 194C1 (antibody, V domains shown, Tested as hybridoma supernatant at normalized concentration) VH: QVQLVESGGGVVQPGRSLRLSCAASGFTFSSYGMHWVRQAPGKGLEWVAVIWYDGSNEHYADSVKGRFTISRDNSKNTLYLQMNSLRAEDTAVYYCARNRGVGYYGLDVWGQGTTVTVSS VL: DIQMTQSPSSLSASVGDRVTITCRASQGISNYLAWFQQKPGKAPKSLIYAASSLQSGVPSKFSGSGSGTDFTLTISSLQPEDFATYYCLHYLTYPLTFGGGTKVEIK | binds | no binding |  |  |
| 191G1 (antibody, V domains shown, Tested as hybridoma supernatant at normalized concentration) VH: QVQLVESGGGVVQPGRSLRLSCAASGFTFSSYGMHWVRQAPGKGLEWVAVIWYDGSNEHYADSVKGRFTISRDNSKNTLYLQMNSLRAEDTAVYYCARDRGVGYYGLDVWGQGTTVTVSS VL: DIQMTQSPSSLSASVGDRVTITCRASQGISNYLAWFQQKPGKAPKSLIYAASSLQSGVPSKFSGSGSGTDFTLTISSLQPEDFATYYCQHYLTYPLTFGGGTKVEIK | binds | no binding |  |  |
| 7E11 (antibody, V domains shown, Tested as hybridoma supernatant at normalized concentration) VH: QVQLVESGGGVVQPGRSLRLSCAASGFTFSSFGMHWVRQAPGKGLEWVAIIWHDGSNKYYADSVKGRFTISRDNSNNTLYLQMSSLRAEDTAVYYCARDLSMGGMDVWGQGTTVTVSS VL: DIQMTQSPSSLSASVGDRVTIACRASQNIISYLNWYQQKPGKAPKFLIYTASSLQSGVPSRFSGSGSGTDFTLTISSLQPEDFAIYYCQQTYSTPLTFGGGTKVEIK |  | no binding |  | no binding |
| 48B12 (antibody, V domains shown, Tested as hybridoma supernatant at normalized concentration) VH: EVQLLESGGGLVQPGGSLRLSCAASGFTFSSYAMNWVRQAPGKGLEWVSAISGRGGNTFYADSVKGRFTISRDNSKNTLYLQMNSLRAEDTAVYYCAKRETYNWNYEGFDYWGQGTLVTVSS VL: SYELTQPPSVSVSPGQTARITCSGDALPKKYAYWYQQKSGQAPVLVIYEDSKRPSGIPERFSGSSSGTMATLTISGAQVEDEADYYCNSTDSSGNHVVFGGGTKLTVL |  | no binding |  | no binding |
| 56E5 (antibody, V domains shown, Tested as hybridoma supernatant at normalized concentration) VH: QVQLVQSGAEVKKPGASVKVSCQASGYTFTGYHMHWVRQAPGQGLEWMGWINPNNNATNYAQKFQGRVTMTRDTSISTAYMELRRLRSDDTAVYHCARDGTSSFDYWGQGTLVTVSS VL: DIQMTQSPSSVSASVGDRVTITCRASQGIRKWLAWYQQKPGKAPKLLIYAASSLQSGVPSRFSGSGSGTDFTLTISSLQPEDFATYYCQQANSFPFTFGPGTKVDIK |  | no binding |  | no binding |
| 202A3 (antibody, V domains shown, Tested as hybridoma supernatant at normalized concentration) VH: QVQLEQSGAEVKKPGASVKVSCKASGYTFTSYDINWVRQATGQGLEWLGWMNPKRGNTGYAQKFQGRVTMTRNTSISTAHMELSSLRSEDTAVYYCARGRYSREDYYYYYDMDVWGQGTTVTVSS VL: DIQMSQSPSSLSASVGDRVTITCRASQGIRNDLGWYQQKPGKAPKRLICAASRLQSGVPSRFSGSGSGTEFTLTISSLQPEDFAIYYCLQHHDYPFTFGPGTKVDIK | binds | no binding |  |  |

Next, values leading:

| binding result [1] | binding result [2] | binding result [3] | binding result [4] | Binder |
| --- | --- | --- | --- | --- |
| binds | no binding |  |  | 194C10 (antibody, V domains shown, Tested as hybridoma supernatant at normalized concentration) VH: QVQLQQWGAGLLKPSETLSLTCAVSGGSFRYYYWSWIRQPPGKGLEWFGEINHSGSTNYNPSLKSRVTISIDTSKNQFSLKLRSVTAADTAVYYCARDYGAFDIWGQGTMVTVSS VL: EIVLTQSPGTLSLSPGERATLSCRASPSVNSGYLAWYQQKPGQTPRLLIFGASSRATGIPDRFSASGSGADFTLTISRLEPEDFAVYFCQQYESSPWTFGQGTKVEIK |
|  |  | binds | no binding | 198D2 (antibody, V domains shown, Tested as hybridoma supernatant at normalized concentration) VH: QVQLVESGGGVVQPGRSLRLSCAASGFTFRSYGMHWVRQAPGKGLEWVAVIIYDGSYKYYADSVKGRFTISRDNSKNTLYLQMNSLRAEDTAVYYCARTYSGGMDVWGQGTTVTVSS VL: QSVLTQPPSVSAAPGQKVTISCSGSSSNIGSNYVSWYQQLPGTAPKVLIYDNNKRPSGIPDRFSGSKSGTSATLGITGLQTGDEADYYCGTWDSRLNVGVFGGGTKLTVL |
|  | no binding |  | no binding | 7G4 (antibody, V domains shown, Tested as hybridoma supernatant at normalized concentration) VH: QVQLVESGGGVVQPGRSLRLSCAASGFTFNNYVMHWVRQAPGKGLEWVAVIWYDGSNKYYADSVKGRFTISRDNSKNTLYLQMTSLRAEDTAVYYCAREKYSSNWYDYGMDVWGQGTTVTVSS VL: DIQMTQSPSSLSASVGDRVTITCRASQGIRNDLGWYQQRPGKAPKRLIYAASSLQSGVPSRFSGSGSGTEFTLTISSLQPEDSATYYCLHQYSYPRTFGQGTKVEIK |
| binds | no binding |  |  | 191G10 (antibody, V domains shown, Tested as hybridoma supernatant at normalized concentration) VH: QVQLVESGGGVVQPGRSLRLSCAASGFTFSSYGMHWVRQAPGKGLEWVAVIWYDGSNKNYADSVKGRFTISRDNSKNTLYLQMNSLRAEDTAVYYCARDQGVGYDGLDVWGQGTTVTVSS VL: DIQMTQSPSSLSASVGDRVTITCRTSQGIGKYLAWFQQKPGKAPKSLLYKVSSLQSGVPSKFSGSGSGTDFTLTISSLQPEDFATYYCQQYMTYPLTFGGGTKVEIK |
| binds | no binding |  |  | 198G3 (antibody, V domains shown, Tested as hybridoma supernatant at normalized concentration) VH: QVQLVESGGGVVQPGRSLKLSCAASGFTFSTYGMHWVRQAPGKGLEWVAVIWYDGTNKNYADSVKGRFTISRDNSKNTLCLQMNSLRAEDTAVYYCARDQGVGYDGLDVWGQGTTVTVSS VL: DIQMAQSPSSLSASVGDRVTITCRTSQGIGKYLAWFQQKPGKAPKSLLYKASSLQGGVPSKFSGSGSGTDFTLTISSLQPEDFATYYCQQYMTYPLTFGGGTKVEIK |
